Measurements as given in the supplement of paper PMC9112550, “Optimization of the antimicrobial peptide Bac7 by deep mutational scanning” (BMC Biology, 2022).

tested on: Escherichia coli TOP10; test: shrunken log2 fold change of peptide-encoding DNA abundance (4.5 h post-induction vs induction); higher = less antimicrobial activity (less host growth inhibition); details: time post-induction: 4.5 h; library: site-saturation at positions 5, 18, 19, 20
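Further: peptides expressed intracellularly from a pBAD plasmid library in pooled LB shake-flask culture, induced with 0.3% L-arabinose, DNA abundance read by NGS, three biological replicates, DESeq2 with apeglm shrinkage.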

Sequence | shrunken log2 fold change
RRIRTRPPRLPRPRPRPEDHPRP | -0.0554
RRIRNRPPRLPRPRPRPTSAPRP | 0.163
RRIRSRPPRLPRPRPRPTSPPRP | 0.742
RRIRWRPPRLPRPRPRPQCVPRP | -0.0311
RRIRFRPPRLPRPRPRPPCQPRP | 3.46
RRIRWRPPRLPRPRPRPWGTPRP | -0.0421
RRIRIRPPRLPRPRPRPTIRPRP | -0.995
RRIRDRPPRLPRPRPRPHRQPRP | -0.0279
RRIRTRPPRLPRPRPRPDCTPRP | 0.0818
RRIRPRPPRLPRPRPRPAFGPRP | 0.45
RRIRRRPPRLPRPRPRPRRWPRP | 0.386
RRIRSRPPRLPRPRPRPFFRPRP | -0.0536
RRIRMRPPRLPRPRPRPWDAPRP | 0.228
RRIRYRPPRLPRPRPRPIALPRP | -0.0389
RRIRRRPPRLPRPRPRPIDMPRP | 0.0233
RRIRCRPPRLPRPRPRPCRHPRP | -0.196
RRIRKRPPRLPRPRPRPLTSPRP | 0.0205
RRIRQRPPRLPRPRPRPTLTPRP | 0.0596
RRIRIRPPRLPRPRPRPKIKPRP | -0.696
RRIRYRPPRLPRPRPRPCGLPRP | -0.107
RRIRNRPPRLPRPRPRPISVPRP | -0.00409
RRIRERPPRLPRPRPRPLCIPRP | -0.895

Sequence | shrunken log2 fold change
RRIRKRPPRLPRPRPRPLCHPRP | 0.252
RRIRMRPPRLPRPRPRPDKPPRP | -0.00474
RRIRWRPPRLPRPRPRPLIPPRP | -0.327
RRIRIRPPRLPRPRPRPEKNPRP | -0.232
RRIRPRPPRLPRPRPRPYDQPRP | -0.15
RRIRQRPPRLPRPRPRPGAQPRP | 0.528
RRIRFRPPRLPRPRPRPYDAPRP | -1.06
RRIRNRPPRLPRPRPRPHWQPRP | -0.115
RRIRARPPRLPRPRPRPQNTPRP | -0.286
RRIRQRPPRLPRPRPRPYVDPRP | -0.431
RRIRERPPRLPRPRPRPETMPRP | 0.0664
RRIRVRPPRLPRPRPRPIAHPRP | -0.126
RRIRDRPPRLPRPRPRPKPYPRP | -0.12
RRIRDRPPRLPRPRPRPWRTPRP | -0.0162
RRIRCRPPRLPRPRPRPITYPRP | -0.362
RRIRCRPPRLPRPRPRPHRFPRP | -0.0713
RRIRRRPPRLPRPRPRPEYLPRP | -0.0446
RRIRKRPPRLPRPRPRPLYRPRP | -0.0664
RRIRERPPRLPRPRPRPCTMPRP | 0.018
RRIRQRPPRLPRPRPRPAHIPRP | -0.137
RRIRQRPPRLPRPRPRPVIAPRP | 0.248
RRIRHRPPRLPRPRPRPQEIPRP | -0.19

Sequence | shrunken log2 fold change
RRIRHRPPRLPRPRPRPHMNPRP | -0.491
RRIRQRPPRLPRPRPRPPLMPRP | 0.179
RRIRTRPPRLPRPRPRPETKPRP | 0.00321
RRIRGRPPRLPRPRPRPEQQPRP | -0.0199
RRIRERPPRLPRPRPRPHPAPRP | 0.039
RRIRHRPPRLPRPRPRPDIYPRP | 0.027
RRIRIRPPRLPRPRPRPSLYPRP | -0.535
RRIRERPPRLPRPRPRPGLYPRP | -0.233
RRIRERPPRLPRPRPRPNEEPRP | 0.00699
RRIRWRPPRLPRPRPRPGLEPRP | 1.46
RRIRKRPPRLPRPRPRPYVAPRP | 0.111
RRIRDRPPRLPRPRPRPCCYPRP | 0.503
RRIRSRPPRLPRPRPRPEEQPRP | 0.64
RRIRKRPPRLPRPRPRPHPEPRP | 0.39
RRIRQRPPRLPRPRPRPLNIPRP | -0.315
RRIRRRPPRLPRPRPRPMDTPRP | 0.229
RRIRMRPPRLPRPRPRPDLFPRP | 0.803
RRIRFRPPRLPRPRPRPSVEPRP | -0.18
RRIRRRPPRLPRPRPRPPPFPRP | 0.938
RRIRERPPRLPRPRPRPCISPRP | -0.218
RRIRERPPRLPRPRPRPVHGPRP | -0.152
RRIRCRPPRLPRPRPRPTPPPRP | 0.807

Sequence | shrunken log2 fold change
RRIRYRPPRLPRPRPRPIMEPRP | -0.0134
RRIRVRPPRLPRPRPRPKHQPRP | 0.0697
RRIRHRPPRLPRPRPRPPWLPRP | 0.242
RRIRDRPPRLPRPRPRPCQVPRP | -0.0566
RRIRFRPPRLPRPRPRPDYQPRP | -0.268
RRIRMRPPRLPRPRPRPYYHPRP | -0.459
RRIRIRPPRLPRPRPRPCCCPRP | -0.641
RRIRIRPPRLPRPRPRPCVHPRP | -1.13
RRIRARPPRLPRPRPRPEWNPRP | 0.76
RRIRPRPPRLPRPRPRPTKWPRP | 0.187
RRIRCRPPRLPRPRPRPWLTPRP | -0.117
RRIRGRPPRLPRPRPRPPVLPRP | 0.25
RRIRHRPPRLPRPRPRPTPIPRP | 0.226
RRIRGRPPRLPRPRPRPMSCPRP | 0.364
RRIRWRPPRLPRPRPRPIGNPRP | 0.137
RRIRWRPPRLPRPRPRPRWKPRP | -0.0506
RRIRCRPPRLPRPRPRPHISPRP | -0.535
RRIRYRPPRLPRPRPRPKPYPRP | -0.698
RRIRLRPPRLPRPRPRPISAPRP | -0.053
RRIRNRPPRLPRPRPRPMNSPRP | -0.148
RRIRARPPRLPRPRPRPSTAPRP | 0.482
RRIRLRPPRLPRPRPRPLVFPRP | -0.186

Sequence | shrunken log2 fold change
RRIRFRPPRLPRPRPRPTQCPRP | 0.322
RRIRYRPPRLPRPRPRPAPLPRP | -0.0323
RRIRKRPPRLPRPRPRPVWSPRP | -0.0616
RRIRERPPRLPRPRPRPKWNPRP | -0.447
RRIRSRPPRLPRPRPRPYGLPRP | -0.0943
RRIRKRPPRLPRPRPRPNPCPRP | 0.117
RRIRYRPPRLPRPRPRPVEAPRP | -0.35
RRIRWRPPRLPRPRPRPTLLPRP | 0.104
RRIRQRPPRLPRPRPRPINMPRP | -0.28
RRIRCRPPRLPRPRPRPNKWPRP | -0.00442
RRIRYRPPRLPRPRPRPEPIPRP | -0.103
RRIRFRPPRLPRPRPRPRKMPRP | 0.0208
RRIRSRPPRLPRPRPRPKQSPRP | 0.328
RRIRRRPPRLPRPRPRPPEHPRP | 0.14
RRIRYRPPRLPRPRPRPHQCPRP | -0.0856
RRIRLRPPRLPRPRPRPRMWPRP | 0.458
RRIRERPPRLPRPRPRPTPGPRP | 0.337
RRIRRRPPRLPRPRPRPFSRPRP | 0.18
RRIRGRPPRLPRPRPRPCSPPRP | 0.0454
RRIRNRPPRLPRPRPRPTTSPRP | -0.292
RRIRCRPPRLPRPRPRPHECPRP | -0.3
